# Test results from the DeepSol protein solubility set.
# Experiment: soluble on expression in E. coli; label from the status in PepcDB or PDB records
row,Sequence,soluble on expression in E. coli
1,MVRANGAVSLRELARVVQTSEVTVRRDVRALEAEGLLDRRHGGAVLPGGFTRESGFPQKSHLATAEKTAIADLAAGLVEEGEAIVVGAGTTTQELARRLARVPGLTVVTNSLLVAQALAHANRVEVVMTGGTLRGSNYALVGSGAEQSLQGLRVSKAFLSGSGLTAERGLSTSNMLSASVDRALVQAAAEVVVLADHSKLGTDTMFQTVPTDVITRLVTDESPGHDDRAATELQALADQGVQIAVAGASGGGTANGTGASGAPGGDSVGRQQRRDVPLPGPRRQVPGAAGAGLRSATALGEQGGGAERARVADMRRRLEHHHHHH,not soluble
2,MAHHHHHHMFRRLSVCVPFATTARFYTPSEELKKLYASDFERAQFPANIVPSDSVTFAKFLYKAVEPKGSFDTILKDFQTIAAAIPKLPVFWQRTVVVSEVSEFKSLSAPTTFTLEWMQSNGMLDLLPDVAEVYETYVNAKMKRVTAKIYVAAGKEQDRALVDKAKKVAEQVVKDNQQFAGYTLVPKVLVDRSIVEGFAVDVQGTYVNEAVGRKKETQASGEVDYTTIPPPRLSKTTWEDNIETEVLRKYLDSLSLYDAEELKSGV,soluble
3,MGIDPGTGSMDVLGFDDESNNVFLEESIPRDEVTRDPSLPLRIVEEASAKVGGLDAVVAPSGYGMPLKRASETAPGDICEATFIHSSDEVLGLRIVGLRRLMALFASSDLPAWFTPGVIHLPTVPAWRKVGRIDMGTADKLYTVAAALRTEVEYHGVEPEAARFIAVEAGMAYTAAVAVVGGKVVDGVGGTSGFHGFMGGGAMDGEAAYALAAVAPRFSKSLLFKGGAGWVAGVSSPVELEEKASEGGGLEALEMLGEGVVKSVATLLPSLRPEGGEVRVYVSGRLFSLGRLGSELRSRLRDFISSIGLTPRVLTIERLGSKTKEGASGAALVASGLAGGRYKWLVDHLELERSSGSIFDHLPVDEDLRRAVRLEFRSCSPLGEA,not soluble
4,GMIQVPASFDIQGHRGCRGLLPENTIAAFTKALLLGVTTLEFDLVISKDNRVVVSHDTFFHHEITMMVDGEDVTEANEKNFNLYAMNYADIKEIDVGMKTHPRFKSQKKVPAVKPLFRELIETAEKLSAKIQYNGEIKSTVEGDNIDHPNIALFCDLVVAEIKKAHITDRFTLQSFDVRALEYMHSQYPDIKLSYLVETKGTLKKQLEKLSFTPAVYSPDVTLVSKKDIDAAHKLGMRVIPWTVNTKEEIETLISLGVDGIITDYPDLFFEK,soluble
5,MIAILTDKPNVGKEIARILGAHTREDGYMSGNGYMVTWTFGNMLSLAMPKDYGMDRPERGDFPINPAPFRLMVKHIKTDTGWIPDINAVLQLKVIEKVFDACESIIAATDASREGEMVFRYLYRYLECRKSYRRLWISSLTDEAVLEGMDNLRPGSLYDHMFLAADSRNKADWVLGLNASYALCQATGTGNNSLGRVQTPILAAISSRYRERENHIATDTFPVFISLCKNNTLLKMRCTEEFTDREAAARLYSDCKLAGHARVTAVSRQVREIEPPALYNLTELQKDANNYYGMTAGKSLEIAQKLYEKKLISYPRTAGRFLPRDVYDKLPRIMEKILNRKEFRPYVRSMGINIFDLPDKVVDEGQAAEHHAIIITDTYPEGLNREEMQLYMMIIGRMLEAFMPVCRAEYTTVDAVCAARNFRCHACRIIEKGWFGIFERESVIAGREYGFSPIPQLENGETAAVTGCSLIHRKDLTVSAYTDAELITYMDTAGLGTAATRTGILQTLIDRKYVRYSGKYIIPTRKGLYIYETVRNMKIAETALTSGWEAQLARMERGKLTQEEFMKGVLKLSREVTEDIFRKCER,not soluble
6,MTMQHASSAGRRPAVPVYLKIRNAIRDAISNAAYAPGDLLPSETELAKRYATTRATVVHAIQQLVFEGLVERKRGVGSFVAQPKLSSTVDTHRVAYFEQDAFARDLTYEVIGYGKAVVEDHVRDTLRLGRGEPVYRLQRLRLLLGKPIAFELRYLPALVGARLTAEMLARRSVQSLLDEEVGMPITRFLNAVRVALVPAAVARHLQLEKGRPVMVRTHTFLDAADTPLLWGETLYREEYQINYVLTAMQAPDEAVGGRPRKGAGRA,not soluble
7,MGSDKIHHHHHHMQGRTPLLETLRELECEIRLLTVYARECCGCYEILRRKLDRLSGLIGEDCSRAQWQADSDDPALQALGLRLRDAAVQALCELEKHLCQGVLHEPGEMGRYLGSLLESIRGELDSAGIYAYARVLFVGSGALPTSALVLAREVGAHLCCLDIDEEALGCAREIARCQGLEARMQFSSLPPAELAFSRDATHFLIASLVQQKSAVLAQIRQVMRADAKVLLRHGSGIKGLFNYPVEPAELDGWRVCAERVSQPLYDTLILEKAGR,not soluble
8,MGSDKIHHHHHHMCIMASCLSPNWSVFDIDQSQTLQVAVQEAHARSQPLAIRGGGSKTFYGRQTPACDLLDLGGHRGIIDYAPNELFITLRAGTSLQALEAQLAEAGQMLPFEPPHFGPAATIGGTLACGFSGPRRPYAGSARDMVLGMRILNGQGEILRFGGQVMKNVAGYDVSRLMVGALGTLGVLLEVSLKVLPRPDSTVTLVWPMDPVTAVQRMNDWAGQPLPLSATAYDGEHLYIRLSGTGSAVRAAQTRLGGERLPDAEAAAFWVALREQRNDFFQGDAPLWRLAVAPATPPLPLGDQTLIEWGGGQRWLRGALDATALRQLAAEHGGHATLFRGGNRRGEVFHPLAPPLLAMQQRLKAAFDPRGILNSGRLYATL,not soluble
9,MKHNLNAHEARVIGCLLEKQVTTPEQYPMSLNGLTLACNQKTSRDPVMELSESQVQQTLDFLLKKHLIRSQSGNRVMKYEHRFCNSEFGDLKFSPAEVAVITLLLLRGAQTPGELRTRTNRMYEFADVAETEETLKTLSLREDGPFVVRLAREPGKRESRFMPLFSGDVASSLLAAGEAEENNHTLEANPRETHSFENIALEKTALEARVAQLEQQVIQLSRRLDDVLIQLDDMKKLRVGIVGLGGIAQKAYLPILTQAQGWQLVGAFSPNQAKAQPLCDSYRMRYFSRLDTLAAASDAVFVHSSTASHFQVVHDLLQAGVHVYVDKPLAETREQSEQLIELADKQHLALMVGFNRRFAPLYQQLKQQASSPVSLRMEKHRLSSIGPHDLGFTLLDDYLHVVDTALWLGGEGARLTGGAVQTNAQGQMLYAEHHFQQGGCLITTSMHRQAGTQRESVQVISDGACYHITDMRQWQQASAGQVISQPAPGWQTTLEQRGFTGAVHHFIEAVSNQTRPQVSGEDAIVAQRMIERILQQ,not soluble
10,GPGSMSEHATTDLEGRYAQLATIQSEIDAAPLLSPTVEKLGDGCNLMTEFSDNPPMLVKVVSLWRNEETKYKGIRYARRDGNCFYRSVVFGMHESLLNNKERAGAHLERITDLSRQVVADYGNFAEDFCHPAVEMAKKIESGECSTVEQLYELSTNGEAEYALYFYRYAVSHHIRTHEDDFLPFVVGMGHETVSEFCSVEVDAVASEADNVQVVAFAQCFDVRVIVEYVDGREGDCTTRHTFQQKDSHDANEYTTIEVTLLYRPGHYDLLYK,soluble
11,MGSDKIHHHHHHMNRGMKNYLSQTNYRDAMKAADIMNSNVIYATLPSTRDKVLELFKKYEISAVPVLKNSELVGIVTRKDILRKIEENQLALLMTPNPTTVDADADVKEVVKILTSTPFRRLPVVKDGKLVGIITVRDIIKKIAEMNIEKPVKSYITPYIVCVWEETPLNVVGEIMRLSNSEFVGILNDNDELVGVIDEKIMLTETLIEDFIEQTAYSSSSDTDDSWSWDSVRDYTVKYFEVSVVKLPKEPVKNFMKKPEFVYPQTSVSKCAKRMVRSDLDYIPVLDSENRLIGTVRDKDLIRVLLEV,not soluble
12,MAEYEFMYIHSLAEHYLQYVLQVPAFESAPSQACRVLQRVAFSVQKEVEKNLKSYLDDFHVESIDTARIIFNQVMEKEFEDGIINWGRIVTIFAFGGVLLKKLPQEQIALDVGAYKQVSSFVAEFIINNTGEWIRRNGGWEDGFIKKFEPKSGWLTFLQMTGQIWEMLFLLK,not soluble
13,MSYDANLTKYMDFLVKKTKNAAEPTTFKEIFDEYSRLDPDRSTYSMCYDKFHHRLAPIMNELNTYSIRERVRVMLTMGGKVSKDFLTTIEKLGTVQLDEKRRILKYASKDGKFKIEGARSEFMDFLIQQTRDAVRPMTSTSIAKEFCRIKDRQVSVDTFNKKFRRNLAPNMSRWSSYLLGDRIRMMFVLKGTVRTDFLAEIEKSGTVQLDDQRRIVRYASNDGMIELEEKTSGVKRRRSTKSSNTPTKRREITENELSDTDDVEVMEIVDGYVEQESASFDFEELVNREASYNLDQGHLYREILEAPLLENRDSKFNPFNAKSGRQAEVQRSGTFLNESEGTSTNAQESFVFRGFLKQEPVFEQFHIQNMSNNLVNLPIPPEIEETPVQEGHHVEPSGITGSDGIRLHKFLNSLELMLTSLESDTLNDLMQEIEEIRRRTDEILPSELVITTLQTFFLGITRKFRPETSAPSKSAKECLRIFKYALLWLKNPLLYDLQKRVQDEIENHEADGKVLLIADVQQGIRNILFTVV,not soluble
14,GSDSSLFETYNVELVRKDGQSLGIRIVGYVGTSHTGEASGIYVKSVIPGSAAYHNGHIQVNDKIVAVDGVNIQGFANHDVVEVLRNAGQVVHLTLVRRKTSSSTSPLEPPSDRGTV,soluble
15,MGSDKIHHHHHHMFALAASNMILRGDGKANLHQSSCFMTDFQDLIKNPKPETGLKRPNVGFLNPPYAQSKSDAELHELYFVKEMLDMLAEGGTGIAIIPVSCVIAPSKAKSEIVKYHRLKAVMSMPSELFYPVGTVTCIVVFEAHKPHFQTVVIDPDTQEEISTKKACRKTWFGYWRDDGFEKTKHLGRIDLYDRWQGIKARWLEHYLNNEVHTGESVTAFVTDNDEWVAEAYLETDYSKITRADFEQVVREFALFQLLGAEVGPTENLDNESYEDDDNNDFGDDE,not soluble
16,MPYRRRQSTAPKSGAPKSVRSAAAGQSLDIDGIHLHLTRKPIKNLYLRIKPPSGRVEISAPMRMSESRIADFVKERHSWILAQQQRMAEAQRRSIMALNEGAGFENGGRGVAGASGHDGGVAGRPKTGDISRPGIGDAGPGQAGTNVQPYFDRSQIWTDERKRQAAAAINAALPQLLAKWGPVVGRQPTHITLRVMTSRWGSCTPRTGRIRLNLQLGLMEPQFLEYVLVHEMTHLWESGHGAGFQRRMTAYLPGWKTLRRDLNRRVVLLEHHHHHH,soluble
17,METTIFQFQKTFFTKPPKERVFVLHGEEQYLIRTFLSKLKEKYGENYTVLWGDEISEEEFYTALSETSIFGGSKEKAVVIYNFGDFLKKLGRKKKEKERLIKVLRNVKSNYVFIVYDAKLQKQELSSEPLKSVASFGGIVVANRLSKERIKQLVLKKFKEKGINVENDALEYLLQLTGYNLMELKLEVEKLIDYASEKKILTLDEVKRVAFSVSENVNVFEFVDLLLLKDYEKALKVLDSLISFGIHPLQIMKILSSYALKLYTLKRLEEKGEDLNKAMESVGIKNNFLKMKFKSYLKANSKEDLKNLILSLQRIDAFSKLYFQDTVQLLRDFLTSRLEREVVKNTSHGG,soluble
18,MGSDKIHHHHHHNEAQVSAVKQFVEGFNQKNVQSMQSHTTDDVKWFSISEGAMALETSDKEELGEAMQNYFSGYSSAHAKIVNLVNSGDFISTVEQVKWQNEGKWFMQCSLGVYRFKQNKIASVWYYPAHVCDATNAQVN,not soluble
19,MAHHHHHHMDARVHRSKRGCGRVLKRSRASSPEVVAEVGTGRPGDPFVLPLRSSPNGSGCHHCPEHSCDCLYVSKELERCYLSLQVSRQVTCKGRRELCAKSVLPPFVARLLRVANVTADDTFYDLGCGNGSVLFHVALATGASCVGVEINEHNAKVAKEAWTHLRPVFEKRRGRKLDVSIVCGDFCKVLKQDNYFSSSCVVWIANLLMPRFVNHYLSERLRSLPIGSRVLCMEDLYPHSRSVAAARDPDAFEKFEMVDYRWQEDSVEWSPASGPFYLYIKRS,not soluble
